Measurements published in the supplement of paper PMC6757056.
± gives the standard deviation of the averaged measurements.

B1: library; a variant is named by its letters at N, in order (parent)
chain: GCUGUCACCGGUGCUUGGUACGUUAUAUUCAGCCGGUCUGAUGAGUCUNNNNNNAGACGAAACAGC

Legend:
(6R,S)-folinic acid [1] = variants of: B1; experiment: normalized RNA/DNA level without ligand (relative to sTRSVctl = 100) (log10 (% of sTRSVctl)); HEK293T overexpressing SLC46A1; higher = less ribozyme self-cleavage, higher mRNA level; settings: without (6R,S)-folinic acid; ligand present: no
Outline: (§1)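 HEK293T cells received ligand, where used, 1 h before being transfected with 4 µg per 6-well well of library plasmids encoding reporter-linked ribozyme switches. After 72 h, RNA was extracted with EDTA and sequenced. RNA level was derived from RNA reads per DNA read, normalized to a spiked-in non-cleaving sequence or the top sequences, then scaled and log-transformed. Values were ×100 then log10, the top set was 25 sequences, and the minimum was 100 DNA reads.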

(6R,S)-folinic acid [2] = variants of: B1; experiment: normalized RNA/DNA level with ligand (relative to sTRSVctl = 100) (log10 (% of sTRSVctl)); HEK293T overexpressing SLC46A1; ligand concentration (+) RNA-Seq: 6 mM; higher = less ribozyme self-cleavage, higher mRNA level; settings: with (6R,S)-folinic acid; ligand present: yes
Outline: as §1

| Variant | normalized RNA/DNA level without ligand (log10) ((6R,S)-folinic acid [1]) | normalized RNA/DNA level with ligand (log10) ((6R,S)-folinic acid [2]) |
| --- | --- | --- |
| GCUGUCACCGGUGCUUGGUACGUUAUAUUCAGCCGGUCUGAUGAGUCUUCACGCAGACGAAACAGC [UCACGC] | 2.036 ± 0.0036 | 1.97 ± 0.023 |
| GCUGUCACCGGUGCUUGGUACGUUAUAUUCAGCCGGUCUGAUGAGUCUUCACGAAGACGAAACAGC [UCACGA] | 2.019 ± 0.0037 | 2.03 ± 0.028 |
| GCUGUCACCGGUGCUUGGUACGUUAUAUUCAGCCGGUCUGAUGAGUCUUCACGGAGACGAAACAGC [UCACGG] | 1.965 ± 0.019 | 2 ± 0.043 |
| GCUGUCACCGGUGCUUGGUACGUUAUAUUCAGCCGGUCUGAUGAGUCUUCACGUAGACGAAACAGC [UCACGU] | 1.98 ± 0.036 | 2.01 ± 0.03 |
| GCUGUCACCGGUGCUUGGUACGUUAUAUUCAGCCGGUCUGAUGAGUCUGCAGCCAGACGAAACAGC [GCAGCC] | 2 ± 0.024 | 2.02 ± 0.025 |
| GCUGUCACCGGUGCUUGGUACGUUAUAUUCAGCCGGUCUGAUGAGUCUGCAGCAAGACGAAACAGC [GCAGCA] | 2.048 ± 0.018 | 2.06 ± 0.037 |
| GCUGUCACCGGUGCUUGGUACGUUAUAUUCAGCCGGUCUGAUGAGUCUUCACUAAGACGAAACAGC [UCACUA] | 1.9969 ± 0.0017 | 2.019 ± 0.0085 |
| GCUGUCACCGGUGCUUGGUACGUUAUAUUCAGCCGGUCUGAUGAGUCUUCACUUAGACGAAACAGC [UCACUU] | 2.021 ± 0.0092 | 2.04 ± 0.018 |
| GCUGUCACCGGUGCUUGGUACGUUAUAUUCAGCCGGUCUGAUGAGUCUUCACUCAGACGAAACAGC [UCACUC] | 2.07 ± 0.01 | 2.05 ± 0.026 |
| GCUGUCACCGGUGCUUGGUACGUUAUAUUCAGCCGGUCUGAUGAGUCUUCACUGAGACGAAACAGC [UCACUG] | 1.906 ± 0.0057 | 2.015 ± 0.02 |
| GCUGUCACCGGUGCUUGGUACGUUAUAUUCAGCCGGUCUGAUGAGUCUCCAGCAAGACGAAACAGC [CCAGCA] | 2.01 ± 0.031 | 1.985 ± 0.0059 |
| GCUGUCACCGGUGCUUGGUACGUUAUAUUCAGCCGGUCUGAUGAGUCUGCAGAAAGACGAAACAGC [GCAGAA] | 1.942 ± 0.0071 | 2.01 ± 0.044 |
| GCUGUCACCGGUGCUUGGUACGUUAUAUUCAGCCGGUCUGAUGAGUCUGCAGAGAGACGAAACAGC [GCAGAG] | 1.808 ± 0.01 | 2 ± 0.074 |
| GCUGUCACCGGUGCUUGGUACGUUAUAUUCAGCCGGUCUGAUGAGUCUGCAGACAGACGAAACAGC [GCAGAC] | 1.98 ± 0.037 | 2.02 ± 0.022 |
| GCUGUCACCGGUGCUUGGUACGUUAUAUUCAGCCGGUCUGAUGAGUCUGCACUCAGACGAAACAGC [GCACUC] | 2.022 ± 0.0041 | 2.022 ± 0.0086 |
| GCUGUCACCGGUGCUUGGUACGUUAUAUUCAGCCGGUCUGAUGAGUCUGCACUAAGACGAAACAGC [GCACUA] | 2.019 ± 0.018 | 2.01 ± 0.022 |
| GCUGUCACCGGUGCUUGGUACGUUAUAUUCAGCCGGUCUGAUGAGUCUGCACUUAGACGAAACAGC [GCACUU] | 2.001 ± 0.017 | 2.01 ± 0.021 |
| GCUGUCACCGGUGCUUGGUACGUUAUAUUCAGCCGGUCUGAUGAGUCUGCACUGAGACGAAACAGC [GCACUG] | 2 ± 0.024 | 2.02 ± 0.056 |
| GCUGUCACCGGUGCUUGGUACGUUAUAUUCAGCCGGUCUGAUGAGUCUCCACUCAGACGAAACAGC [CCACUC] | 1.9795 ± 0.0011 | 2.008 ± 0.02 |
| GCUGUCACCGGUGCUUGGUACGUUAUAUUCAGCCGGUCUGAUGAGUCUCCACUGAGACGAAACAGC [CCACUG] | 2.02 ± 0.041 | 2.074 ± 0.018 |
| GCUGUCACCGGUGCUUGGUACGUUAUAUUCAGCCGGUCUGAUGAGUCUCCACUAAGACGAAACAGC [CCACUA] | 2.018 ± 0.0041 | 2.02 ± 0.015 |

| Variant | normalized RNA/DNA level without ligand (log10) ((6R,S)-folinic acid [1]) | normalized RNA/DNA level with ligand (log10) ((6R,S)-folinic acid [2]) |
| --- | --- | --- |
| GCUGUCACCGGUGCUUGGUACGUUAUAUUCAGCCGGUCUGAUGAGUCUACACGCAGACGAAACAGC [ACACGC] | 1.981 ± 0.015 | 1.99 ± 0.049 |
| GCUGUCACCGGUGCUUGGUACGUUAUAUUCAGCCGGUCUGAUGAGUCUACACGGAGACGAAACAGC [ACACGG] | 1.934 ± 0.013 | 2.02 ± 0.04 |
| GCUGUCACCGGUGCUUGGUACGUUAUAUUCAGCCGGUCUGAUGAGUCUACACGUAGACGAAACAGC [ACACGU] | 2.023 ± 0.013 | 2.03 ± 0.022 |
| GCUGUCACCGGUGCUUGGUACGUUAUAUUCAGCCGGUCUGAUGAGUCUCCAGAGAGACGAAACAGC [CCAGAG] | 1.909 ± 0.013 | 2.014 ± 0.019 |
| GCUGUCACCGGUGCUUGGUACGUUAUAUUCAGCCGGUCUGAUGAGUCUCCAGACAGACGAAACAGC [CCAGAC] | 1.99 ± 0.023 | 1.98 ± 0.051 |
| GCUGUCACCGGUGCUUGGUACGUUAUAUUCAGCCGGUCUGAUGAGUCUCCAGAAAGACGAAACAGC [CCAGAA] | 1.982 ± 0.0051 | 1.98 ± 0.053 |
| GCUGUCACCGGUGCUUGGUACGUUAUAUUCAGCCGGUCUGAUGAGUCUGCACGGAGACGAAACAGC [GCACGG] | 1.997 ± 0.016 | 2.006 ± 0.018 |
| GCUGUCACCGGUGCUUGGUACGUUAUAUUCAGCCGGUCUGAUGAGUCUGCACGAAGACGAAACAGC [GCACGA] | 2.029 ± 0.005 | 2.03 ± 0.038 |
| GCUGUCACCGGUGCUUGGUACGUUAUAUUCAGCCGGUCUGAUGAGUCUGCACGUAGACGAAACAGC [GCACGU] | 1.99 ± 0.02 | 2.01 ± 0.023 |
| GCUGUCACCGGUGCUUGGUACGUUAUAUUCAGCCGGUCUGAUGAGUCUGCACGCAGACGAAACAGC [GCACGC] | 2.025 ± 0.0075 | 2.024 ± 0.02 |
| GCUGUCACCGGUGCUUGGUACGUUAUAUUCAGCCGGUCUGAUGAGUCUUCAGAGAGACGAAACAGC [UCAGAG] | 1.75 ± 0.026 | 1.98 ± 0.0089 |
| GCUGUCACCGGUGCUUGGUACGUUAUAUUCAGCCGGUCUGAUGAGUCUUCAGACAGACGAAACAGC [UCAGAC] | 2.046 ± 0.0027 | 1.997 ± 0.016 |
| GCUGUCACCGGUGCUUGGUACGUUAUAUUCAGCCGGUCUGAUGAGUCUUCAGAAAGACGAAACAGC [UCAGAA] | 1.9353 ± 0.0018 | 2.017 ± 0.013 |
| GCUGUCACCGGUGCUUGGUACGUUAUAUUCAGCCGGUCUGAUGAGUCUCCACGGAGACGAAACAGC [CCACGG] | 2.06 ± 0.029 | 2.04 ± 0.048 |
| GCUGUCACCGGUGCUUGGUACGUUAUAUUCAGCCGGUCUGAUGAGUCUCCACGCAGACGAAACAGC [CCACGC] | 2.01 ± 0.022 | 2.01 ± 0.025 |
| GCUGUCACCGGUGCUUGGUACGUUAUAUUCAGCCGGUCUGAUGAGUCUACACUAAGACGAAACAGC [ACACUA] | 2.017 ± 0.012 | 2.01 ± 0.043 |
| GCUGUCACCGGUGCUUGGUACGUUAUAUUCAGCCGGUCUGAUGAGUCUACACUUAGACGAAACAGC [ACACUU] | 1.996 ± 0.016 | 2.03 ± 0.027 |
| GCUGUCACCGGUGCUUGGUACGUUAUAUUCAGCCGGUCUGAUGAGUCUACACUGAGACGAAACAGC [ACACUG] | 1.968 ± 0.01 | 2.03 ± 0.044 |
| GCUGUCACCGGUGCUUGGUACGUUAUAUUCAGCCGGUCUGAUGAGUCUACACUCAGACGAAACAGC [ACACUC] | 2.05 ± 0.027 | 2.03 ± 0.031 |
| GCUGUCACCGGUGCUUGGUACGUUAUAUUCAGCCGGUCUGAUGAGUCUUCAGCAAGACGAAACAGC [UCAGCA] | 2.032 ± 0.016 | 2.062 ± 0.02 |
